According to PMC3153955:

Test system: C[C@@H]1O[C@@H]1P(=O)(O)O
Assay: pyruvate kinase-lactate dehydrogenase coupled assay
Format: biochemical, Streptomyces wedmorensis
Conditions: 1 mM ATP, 10 mM MgCl2, 100 mM KCl, pH 7.2, 25 °C

Substance: FomA (fosfomycin resistance kinase FomA) (Streptomyces wedmorensis)
- Km: 9.9 ± 0.7 µM
- kcat: 155.9 ± 1.5 s⁻¹
